Data taken from PMC5033702.

Experiments:
[1] = molecular target: DDX5-K144N (MBP-DDX5-GST) (UniProt P17844 1-614, K144N); experiment: fluorescence anisotropy
DDX5 WT (MBP-DDX5-GST) = DDX5 WT (MBP-DDX5-GST) (UniProt P17844 1-614); experiment: fluorescence anisotropy
Sequence of DDX5 WT (MBP-DDX5-GST) (P17844 whole entry): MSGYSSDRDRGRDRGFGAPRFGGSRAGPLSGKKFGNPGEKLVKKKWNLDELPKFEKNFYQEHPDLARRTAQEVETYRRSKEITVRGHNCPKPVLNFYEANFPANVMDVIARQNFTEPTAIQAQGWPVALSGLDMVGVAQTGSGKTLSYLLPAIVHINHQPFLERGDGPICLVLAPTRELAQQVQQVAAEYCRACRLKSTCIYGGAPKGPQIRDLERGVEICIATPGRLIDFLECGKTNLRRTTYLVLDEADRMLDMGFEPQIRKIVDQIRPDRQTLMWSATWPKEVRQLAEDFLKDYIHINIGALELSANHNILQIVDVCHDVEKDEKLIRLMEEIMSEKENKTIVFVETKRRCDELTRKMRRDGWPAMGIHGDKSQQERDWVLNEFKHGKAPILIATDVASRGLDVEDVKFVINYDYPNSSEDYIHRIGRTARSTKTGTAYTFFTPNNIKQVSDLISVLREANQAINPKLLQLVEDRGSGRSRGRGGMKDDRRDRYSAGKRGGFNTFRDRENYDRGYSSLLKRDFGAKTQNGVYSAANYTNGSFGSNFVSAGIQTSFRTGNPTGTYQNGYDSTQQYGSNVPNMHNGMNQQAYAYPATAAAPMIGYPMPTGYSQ

Sequence of DDX5-K144N (MBP-DDX5-GST) (P17844 whole entry K144N): as the sequence (P17844 whole entry) above, with K144N counted along it

## AGCACCGUAAAGACGC (ssRNA) [6-FAM ssRNA 16-mer]
[1]
  binding signal: ~4 fold reduced affinity vs WT (nearly 4-fold)
DDX5 WT (MBP-DDX5-GST)
  binding result: binds
